# Values of other authors in US20070212358A1, “Compositions and Methods for Effecting Controlled Posterior Vitreous Detachment” (priority 2006, published 2007).
# B1: plasmin (protein, UniProt P00747 20-580; P00747 581-810, looked up)
# Plasmin heavy chain A: EPLDDYVNTQGASLFSVTKKQLGAGSIEECAAKCEEDEEFTCRAFQYHSKEQQCVIMAENRKSSIIIRMRDVVLFEKKVYLSECKTGNGKNYRGTMSKTKNGITCQKWSSTSPHRPRFSPATHPSEGLEENYCRNPDNDPQGPWCYTTDPEKRYDYCDILECEEECMHCSGENYDGKISKTMSGLECQAWDSQSPHAHGYIPSKFPNKNLKKNYCRNPDRELRPWCFTTDPNKRWELCDIPRCTTPPPSSGPTYQCLKGTGENYRGNVAVTVSGHTCQHWSAQTPHTHNRTPENFPCKNLDENYCRNPDGKRAPWCHTTNSQVRWEYCKIPSCDSSPVSTEQLAPTAPPELTPVVQDCYHGDGQSYRGTSSTTTTGKKCQSWSSMTPHRHQKTPENYPNAGLTMNYCRNPDADKGPWCFTTDPSVRWEYCNLKKCSGTEASVVAPPPVVLLPDVETPSEEDCMFGNGKGYRGKRATTVTGTPCQDWAAQEPHRHSIFTPETNPRAGLEKNYCRNPDGDVGGPWCYTTNPRKLYDYCDVPQCAAPSFDCGKPQVEPKKCPGR
# Plasmin light chain B: VVGGCVAHPHSWPWQVSLRTRFGMHFCGGTLISPEWVLTAAHCLEKSPRPSSYKVILGAHQEVNLEPHVQEIEVSRLFLEPTRKDIALLKLSSPAVITDKVIPACLPSPNYVVADRTECFITGWGETQGTFGAGLLKEAQLPVIENKVCNRYEFLNGRVQSTELCAGHLAGGTDSCQGDSGGPLVCFEKDKYILQGVTSWGLGCARPNKPGVYVRVSRFVTWIEGVMRNN
# modifications: Plasmin
# System: vitreoretinal interface
# Details: rabbit eyes
molecule,measurement,setting,value
B1,posterior vitreous detachment (PVD) in eyes treated with plasmin,plasmin treatment,some areas of PVD
same,detachment of the vitreous after plasmin treatment and vitrectomy,plasmin treatment with subsequent vitrectomy,substantially detached
